Assay results reported in patent US20030190641A1, “Live cell method for observing cellular processes” (CEDARS-SINAI MEDICAL CENTER, priority 2002, published 2003).

Assays:
[1] = test system: H1299 cells; experiment: Single, live cell imaging: duration of mitosis phases of cells expressing PTTG-EGFP; type: cell-based, human; details: 18 hours after transfection
Method: (§1) Human H1299 cells were grown in Dulbeccos's Modified Eagle Medium (DMEM) with 10% Fetal Bovine Serum (FBS) and transfected with Lipofectamine 2000 (obtained from Invitrogen Corporation; Carlsbad, Calif.; hereinafter “Invitrogen”). PTTG-EGFP and p55CDC-EGFP were constructed by cloning PTTG or p55CDC (obtained from Amgen, Inc.; Thousand Oaks, Calif.) into pEGFP-N3 (obtained from BD Biosciences Clontech; Palo Alto, Calif.; hereinafter “Clontech”). Non-degradable mutant PTTG-EGFP was obtained from Dr. Chris McCabe (University of Birmingham, England, UK). EGFP was at the C-terminus of PTTG or p55CDC. Cells were studied (microscopy or by Western blot) 18 to 24 hours after transfection.
(§2) Observation of individual live cells over 48 hours or longer was performed by incubating cells in an FCS2 Closed Perfusion System (obtained from Bioptechs; Butler, Pa.). Cells were perfused with CO2-independent L15 medium (obtained from Invitrogen) supplemented with 10% FBS and penicillin/streptomycin and saturated with ambient air. Perfusion chamber temperature was set to 37° C., and cells were grown in the perfusion system for up to a week until confluency.
(§3) The perfusion chamber was placed on an inverted fluorescence microscope (obtained from Nikon Corporation; Melville, N.Y.) and observed with a 40× extra-long working distance objective lens. Cells were observed from every few seconds to every several hours depending on the speed of cell changes. Durations of mitosis phases were determined by counting the minutes between two sequential mitotic milestones. Phase-contrast and EGFP fluorescent images were taken simultaneously at frequencies ranging from every minute (e.g., during metaphase to anaphase transition) to every few hours (e.g., after telophase), with a CCD digital camera.
(§4) Relative fluorescence intensity was objectively determined with the application of two neutral density filters (NDFs). Each NDF reduces incident light by 50%. High fluorescence was defined when a cell was clearly visualized after application of two NDFs. Medium fluorescence was defined as a cell clearly visualized after application of one but not two NDFs. Low fluorescence was defined as a cell only visualized when neither NDF was applied.
As depicted in Table 1, prophase (Pro), metaphase (Meta), anaphase (Ana), and telophase (Telo) durations were recorded (in minutes) in untransfected control cells (Control), cells expressing EGFP only (EGFP), and in cells expressing PTTG-EGFP (PTTG-EGFP) 18 hours after transfection. […] For some cells expressing PTTG-EGFP, no distinct anaphase or telophase was seen because of abnormal chromosome segregation and cytokinesis.

[2] = test system: H1299 cells; experiment: Single, live cell imaging: destiny of mitosis (PTTG degradation, chromosome segregation, cytokinesis, aneuploidy); type: cell-based, human
Method: as §1, §2, §3, §4
As failure of PTTG degradation is associated with chromosome non-segregation, an EGFP-tagged non-degradable mutant PTTG (DM-PTTG-EGFP) was expressed in H1299 cells and chromosome segregation and cytokinesis of individual live cells observed (FIG. 6; FIG. 5A). Similar to the wild-type PTTG, DM-PTTG localizes to mitotic spindles (FIGS. 5B-5G) and chromosomes (data not shown). […] Most (51/55) cells underwent asymmetrical cytokinesis, while some cells decondensed chromosomes; macronuclei ensued in both cases. During asymmetrical cytokinesis, chromosomes and mitotic spindles were closely attached and moved to one cell pole (FIGS. 5B-5G). The cytokinesis furrow occurred roughly at the position of the distal centrosome (FIGS. 5C and 5D). Both centrosomes were retained in the daughter cell containing chromosomes (FIGS. 5E and 5F).

[3] = High expression level (fluorescence)
[4] = Low expression level (fluorescence)
[5] = Medium expression level (fluorescence)

B1: PTTG-EGFP: EGFP-tagged PTTG (pituitary tumor transforming gene product), EGFP at the C-terminus, expressed in H1299 cells by transfection (protein, UniProt O95997 2-202, looked up)
Securin: ATLIYVDKENGEPGTRVVAKDGLKLGSGPSIKALDGRSQVSTPRFGKTFDAPPALPKATRKALGTVNRATEKSVKTKGPLKQKQPSFSAKKMTEKTVKAKSSVPASDDAYPEIEKFFPFNPLDFESFDLPEEHQIAHLPLSGVPLMILDEERELEKLFQLGPPSPVKMPSPPWESNLLQSPSSILSTLDVELPPVCCDIDI
modifications: C-terminal EGFP tag
notes: EGFP-tagged PTTG (pituitary tumor transforming gene product), EGFP at the C-terminus, expressed in H1299 cells by transfection
[1]; [3]
  Duration of metaphase (Meta): 112 ± 31 min
  Duration of prophase (Pro): 59 ± 7 min
[1]; [4]
  Duration of anaphase (Ana): 4 ± 0 min
  Duration of metaphase (Meta): 26 ± 4 min
  Duration of prophase (Pro): 25 ± 3 min
  Duration of telophase (Telo): 5 ± 0 min
[1]; [5]
  Duration of anaphase (Ana): 4 ± 0 min
  Duration of metaphase (Meta): 49 ± 16 min
  Duration of prophase (Pro): 35 ± 12 min
  Duration of telophase (Telo): 5 ± 0 min
[2]; 65 cells expressing PTTG-EGFP observed
  Cells with anaphase bridge: 2/65
[2]; cells that underwent apparently normal mitosis
  Time of degradation prior to the onset of anaphase: about 1 minute
[2]; parent cells expressing high levels
  Aneuploidy of daughter cells: All daughter cells
[2]; parent cells expressing low levels
  Aneuploidy rate of daughter cells: 18%
[2]; parent cells expressing medium levels
  Aneuploidy rate of daughter cells: 63%
